We go through four molecules from PMC11791182, “Molecular mechanism targeting condensin for chromosome condensation” (The EMBO Journal, 2024).

Common to all, as to conditions: both partners purified
Test [1] addresses T1, Ycg1 (6–932, Δ499–555)-Brn1 (384–529) (S. cerevisiae, UniProt Q06680 6-932; P38170 384-529, Δ499–555).
T1 construct: Ycg1, condensin HAWK subunit, S. cerevisiae, residues 6-932 with 499-555 deleted; Brn1, condensin kleisin subunit, S. cerevisiae, residues 384-529; Construct was a gift of Christian Haering (Kschonsak et al, 2017); also called Ycg1-Brn1; source: E. coli, purified (as described previously, Kschonsak et al, 2017)
T1 sequence (looked up) 1: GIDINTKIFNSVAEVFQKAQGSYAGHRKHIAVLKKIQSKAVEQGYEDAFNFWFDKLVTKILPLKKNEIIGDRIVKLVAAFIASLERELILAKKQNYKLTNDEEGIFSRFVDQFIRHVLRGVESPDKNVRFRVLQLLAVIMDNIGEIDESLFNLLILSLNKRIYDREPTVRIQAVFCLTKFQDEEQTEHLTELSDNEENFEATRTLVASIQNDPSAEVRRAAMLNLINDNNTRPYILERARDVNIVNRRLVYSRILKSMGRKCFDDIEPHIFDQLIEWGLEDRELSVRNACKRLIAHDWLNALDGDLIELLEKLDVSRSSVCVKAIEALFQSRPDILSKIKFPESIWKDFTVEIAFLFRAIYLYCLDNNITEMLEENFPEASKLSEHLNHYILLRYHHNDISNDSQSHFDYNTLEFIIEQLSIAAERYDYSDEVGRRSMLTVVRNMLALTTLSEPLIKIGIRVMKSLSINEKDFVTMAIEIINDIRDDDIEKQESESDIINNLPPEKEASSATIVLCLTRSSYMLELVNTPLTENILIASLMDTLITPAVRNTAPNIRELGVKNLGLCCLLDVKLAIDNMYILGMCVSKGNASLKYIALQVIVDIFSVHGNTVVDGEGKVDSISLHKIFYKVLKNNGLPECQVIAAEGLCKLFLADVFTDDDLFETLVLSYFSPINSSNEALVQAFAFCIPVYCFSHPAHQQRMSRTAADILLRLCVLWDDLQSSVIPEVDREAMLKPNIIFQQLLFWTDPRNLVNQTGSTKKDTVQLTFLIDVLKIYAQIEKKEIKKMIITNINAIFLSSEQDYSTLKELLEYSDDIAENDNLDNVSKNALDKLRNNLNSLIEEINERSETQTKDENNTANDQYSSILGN
T1 sequence (looked up) 2: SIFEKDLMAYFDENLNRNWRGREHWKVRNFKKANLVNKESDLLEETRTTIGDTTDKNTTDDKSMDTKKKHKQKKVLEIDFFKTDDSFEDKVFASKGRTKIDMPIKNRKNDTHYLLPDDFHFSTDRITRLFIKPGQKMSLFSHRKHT
Kind of test: co-IP; two purified recombinant proteins with anti-GFP-coupled dynabeads (GFP-Sgo1 variants held), 2.5 h; 25 mM HEPES pH 7.5, 500 mM NaCl, 10% glycerol, 1 mM DTT, 0.1% NP-40; silver-stained SDS-PAGE.

Test [2] concerns the target T1, Ycg1 (6–932, Δ499–555)-Brn1 (384–529). Kind of test: SEC; Sgo1 (350–590) with Ycg1 (6–932, Δ499–555)-Brn1 (384–529); Superdex200 10/300 24 ml column; 10 mM Tris-HCl pH 7.5, 250 mM NaCl, 5% glycerol, 0.001% Tween-20. Background: Size exclusion chromatography separates by hydrodynamic size, large species first.
Test [3] concerns the target T2, pentameric condensin holo-complex (S. cerevisiae, UniProt P38989 1-1170; Q12267 1-1418; P38170 1-754; Q06680 1-1035; Q06156 1-1176).
T2 construct: Smc2, condensin subunit, S. cerevisiae; Smc4, condensin subunit, S. cerevisiae; Brn1, condensin kleisin subunit, S. cerevisiae; Ycg1, condensin HAWK subunit, S. cerevisiae; Ycs4, condensin HAWK subunit, S. cerevisiae; Constructs were a gift (St-Pierre et al, 2009); also called Sc condensin complex; condensin (Brn1-6HA); source: purified from yeast (as described previously, Kschonsak et al, 2017); …
Nature of the test: co-IP; two purified recombinant proteins with anti-V5-coupled dynabeads (V5-Sgo1 held), 2.5 h; 25 mM HEPES pH 7.5, 500 mM NaCl, 10% glycerol, 1 mM DTT, 0.1% NP-40; silver-stained SDS-PAGE and immunoblot. A general note: A western blot detects proteins with antibodies after separation by electrophoresis.

B1: GFP-Sgo1 (350–590) (domain or fragment, S. cerevisiae, UniProt Q08490 350-590, looked up)
chain: EVMPVSNMSSNSEISFTRTRRTRGKAVDYTLPSLRAKMRRPSEKLVDATTVIDIHDLQVSKRNRETSHKRKSLSQDSIPDEPQLREVVVSKDYGTPKGKKTEDEIHEDTAHLMTTSNNNSNNKNEKKLTSNNSPKKSSPLLDITNKSENKKKSTRTKKLFKNAIVNNLSDENSTTRPSKSSKGTSNNNNNYNNFDNNNSNINNVNNKSVSFRLNEDDLAVFDLFGNGKAVKHQPKTYRTKK
notes: Sgo1 (shugoshin), S. cerevisiae, residues 350-590; also called C-terminal region of Sgo1 (residues 350–590); C-Sgo1
Regarding B1, the binding result in test [1] is listed as “binds”.

B2: V5-Sgo1 (350–590) (domain or fragment, S. cerevisiae, UniProt Q08490 350-590, looked up)
chain: B1 chain
notes: Sgo1 (shugoshin), S. cerevisiae, residues 350-590; also called recombinant C-terminal region of Sgo1 (350–590); source: protease-deficient yeast strain (AM8184), galactose induced, purified (Ni2+ IMAC, Superose 6 gel filtration)
For the molecule B2, the binding result in test [2] and in test [3] was “binds” throughout.

B3: V5-Sgo1 (FL) (natural protein, S. cerevisiae, UniProt Q08490 1-590, looked up)
chain: MPKRKIAPNKESSRRTVSHDDLTPQIQEFQNLMDLESQKVENIRQSYSRQNSLLAKDNSILKIKVNSLEKKISQLVQENVTLRSKTSISEAIYRERLSNQLQVIENGIIQRFDEIFYMFENVRKNENLPSSSLRTMLKRTSSRSRSCSLSSPTYSKSYTRLSNHENNLSHESSFNKDDGPDLEPKAKKRKSSRRQSMFVSTSLEPEDETGENEPMMENSSVEVPAESHESAQVEETIDALNPEEENSDSVSNFTNSIIEYSIPEENPTEPEHSSSKLEIFNDSTNMLSTVPSNPLPLPLPGPSATLPTTTSDASTVYPSSSSSTNSHPKTKIKHSMKPPRIELKKKVIDEVMPVSNMSSNSEISFTRTRRTRGKAVDYTLPSLRAKMRRPSEKLVDATTVIDIHDLQVSKRNRETSHKRKSLSQDSIPDEPQLREVVVSKDYGTPKGKKTEDEIHEDTAHLMTTSNNNSNNKNEKKLTSNNSPKKSSPLLDITNKSENKKKSTRTKKLFKNAIVNNLSDENSTTRPSKSSKGTSNNNNNYNNFDNNNSNINNVNNKSVSFRLNEDDLAVFDLFGNGKAVKHQPKTYRTKK
notes: Sgo1 (shugoshin), S. cerevisiae, full length; also called full-length V5-Sgo1; Sc Sgo1; source: protease-deficient yeast strain (AM8184), purified (Ni2+ IMAC, Superose 6 gel filtration)
For B3, the binding result in test [3] is “binds”.

B4: GFP-Sgo1 (472-530) (domain or fragment, S. cerevisiae, UniProt Q08490 472-530, looked up)
chain: KNEKKLTSNNSPKKSSPLLDITNKSENKKKSTRTKKLFKNAIVNNLSDENSTTRPSKSS
notes: Sgo1 (shugoshin), S. cerevisiae, residues 472-530; also called Recombinant Sgo1 (472-530), wild type; source: E. coli BL21(DE3), purified (Ni-NTA resin, dialysis)
For B4, the binding result in test [1] was “binds”.
